Measured values as given in publication PMC9636422, “AZIN1 RNA editing alters protein interactions, leading to nuclear translocation and worse outcomes in prostate cancer” (Experimental & Molecular Medicine, 2022).
Residue numbers refer to the chain shown, from its start.

Columns and labels:
Assay in all cases: FRET or BRET; AZ-mRuby2 titrated (100 pM-1 µM) to a fixed concentration of Clover-AZIN1 variants (50 nM); TBS pH 7.4 + 0.15% Tween-20; equilibrated at room temp for 1 h; donor quenching fitted
Settings in all cases: both partners purified
[1] = biological target: T1, Clover-AZIN1 S367N mutant, recombinant fusion protein (human, UniProt O14977 1-448, S367N)
T1 construct: source: E. coli (pBAD vector), purified recombinant; not shown: Clover, N-terminal, kept
T1 sequence (looked up): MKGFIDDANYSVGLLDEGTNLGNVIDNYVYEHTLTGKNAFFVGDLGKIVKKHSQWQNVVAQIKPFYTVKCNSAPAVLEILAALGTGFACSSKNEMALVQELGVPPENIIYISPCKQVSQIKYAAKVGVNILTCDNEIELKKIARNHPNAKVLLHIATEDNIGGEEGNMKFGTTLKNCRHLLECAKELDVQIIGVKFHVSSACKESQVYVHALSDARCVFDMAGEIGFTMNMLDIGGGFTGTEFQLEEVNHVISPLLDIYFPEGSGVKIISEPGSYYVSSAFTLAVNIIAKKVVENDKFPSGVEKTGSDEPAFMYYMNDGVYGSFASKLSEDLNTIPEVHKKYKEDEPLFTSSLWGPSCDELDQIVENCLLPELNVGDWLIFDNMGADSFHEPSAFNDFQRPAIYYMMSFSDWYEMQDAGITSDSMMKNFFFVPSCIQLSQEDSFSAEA

[2] = biological target: T2, Clover-AZIN1 (wild type), recombinant fusion protein (human, UniProt O14977 1-448)
T2 construct: The vector encodes the 6X-HIS-tagged fluorescent protein with a TEV protease cleavage site; also called wild-type protein; hAZIN1; source: E. coli (pBAD vector), purified recombinant; not shown: Clover, N-terminal, kept
T2 sequence (looked up): T1 sequence (looked up) with N367S

[3] = biological target: T3, Clover-AZIN1 S367G (edited AZIN1), recombinant fusion protein (human, UniProt O14977 1-448, S367G)
T3 construct: Point mutation introduced by PCR-based site-directed mutagenesis; source: E. coli (pBAD vector), purified recombinant; not shown: Clover, N-terminal, kept
T3 sequence (looked up): T1 sequence (looked up) with N367G

[4] = biological target: T4, Clover-AZIN1 S367A mutant, recombinant fusion protein (human, UniProt O14977 1-448, S367A)
T4 construct: source: E. coli (pBAD vector), purified recombinant; not shown: Clover, N-terminal, kept
T4 sequence (looked up): T1 sequence (looked up) with N367A

- Kd [1]: 40 nM
- Kd [2]: 22 nM
- Kd [3]: 57 nM
- Kd [4]: 39 nM
B1: antizyme-mRuby2 (AZ-mRuby2), recombinant fusion protein (natural protein)
chain: not shown
notes: antizyme (human OAZ1 gene, codon optimised for E. coli and synthesised de novo); also called hOAZ1; source: E. coli (pBAD vector, codon-optimised gene), purified recombinant
